For the data set “translinB2 (untagged, …)”, the target named is translinB2 (untagged, co-expressed);TRAXB2 (human;human, UniProt Q15631;Q99598 1-228;1-290, R86T;H88N;H90N|Q115L;H117N;R118A). Kind of data set: EMSA; 100 nM complex, 100 nM DNA; 25 mM Tris-HCl pH 8.0, 100 mM NaCl, 1 mM EDTA, 30 min; temperature not stated; 4.5% native PAGE in 0.5x TBE. As to conditions: protein: recombinant;recombinant; tags: none;N-terminal 6xHis; label: 5'-32P (unlabeled in agarose EMSA). A general note: Mobility shift assays separate free from complexed probe on a gel.

In data set [1] the target is translinB2 (untagged, co-expressed);TRAX (human;human, UniProt Q15631;Q99598 1-228;1-290, R86T;H88N;H90N|). The data set is described as above. As to conditions: protein: recombinant;recombinant; tags: none;N-terminal 6xHis; label: 5'-32P (unlabeled in agarose EMSA).
Data set [2] has as its target translin (untagged, co-expressed);TRAXB2 (human;human, UniProt Q15631;Q99598 1-228;1-290, |Q115L;H117N;R118A). The data set is described as above. As to conditions: protein: recombinant;recombinant; tags: none;N-terminal 6xHis; label: 5'-32P (unlabeled in agarose EMSA).
Data set [3] addresses T1, translin (untagged, co-expressed);TRAX (human;human, UniProt Q15631;Q99598 1-228;1-290, |). The data set is described as above. As to conditions: protein: recombinant;recombinant; tags: none;N-terminal 6xHis; label: 5'-32P (unlabeled in agarose EMSA).
Data set [4] concerns the target translinB3 (untagged, co-expressed);TRAXB2 (human;human, UniProt Q15631;Q99598 1-228;1-290, R192T;K193N;R194S;Y195N|Q115L;H117N;R118A). Kind of data set: EMSA; 100 nM complex, 200 nM DNA; 25 mM Tris-HCl pH 8.0, 100 mM NaCl, 1 mM EDTA, 30 min; temperature not stated; 4.5% native PAGE in 0.5x TBE. Particulars: protein: recombinant;recombinant; tags: none;N-terminal 6xHis; label: 5'-32P (unlabeled in agarose EMSA).

Data set [5] concerns the target translinB3 (untagged, co-expressed);TRAXB3 (human;human, UniProt Q15631;Q99598 1-228;1-290, R192T;K193N;R194S;Y195N|K241N;K242T;Y244N). Described as above. Particulars: protein: recombinant;recombinant; tags: none;N-terminal 6xHis; label: 5'-32P (unlabeled in agarose EMSA).
In data set [6] the target is translinB3 (untagged, co-expressed);TRAX (human;human, UniProt Q15631;Q99598 1-228;1-290, R192T;K193N;R194S;Y195N|). Described as above. As to conditions: protein: recombinant;recombinant; tags: none;N-terminal 6xHis; label: 5'-32P (unlabeled in agarose EMSA).
A further data set has as its target translinB3 (human, UniProt Q15631 1-228, R192T;K193N;R194S;Y195N). The data set can be described thus: EMSA; 100 nM octamer, 200 nM labeled DNA; 25 mM Tris-HCl pH 8.0, 100 mM NaCl, 1 mM EDTA, 30 min; temperature not stated; 4.5% native PAGE in 0.5x TBE. As to conditions: protein: recombinant; tags: N-terminal 6xHis; chain copies: 8; label: 5'-32P (unlabeled in agarose EMSA).

Data set [7] addresses T1, translin (untagged, co-expressed);TRAX. Kind of data set: UV-laser crosslinking (248 nm); DNA covalently linked to TRAX subunit; 25 mM Tris-HCl pH 8.0, 100 mM NaCl, 1 mM EDTA, 30 min; temperature not stated; 4.5% native PAGE in 0.5x TBE. Particulars: protein: recombinant;recombinant; tags: none;N-terminal 6xHis; label: 5'-32P (unlabeled in agarose EMSA).
The target is the same in data set [8]. The data set can be described thus: UV-laser crosslinking (248 nm); DNA covalently linked to TRAX subunit; silver stain; 25 mM Tris-HCl pH 8.0, 100 mM NaCl, 1 mM EDTA, 30 min; temperature not stated; 4.5% native PAGE in 0.5x TBE. As to conditions: protein: recombinant;recombinant; tags: none;N-terminal 6xHis.

T1 sequence (Q15631 whole entry, chain 1 of 2): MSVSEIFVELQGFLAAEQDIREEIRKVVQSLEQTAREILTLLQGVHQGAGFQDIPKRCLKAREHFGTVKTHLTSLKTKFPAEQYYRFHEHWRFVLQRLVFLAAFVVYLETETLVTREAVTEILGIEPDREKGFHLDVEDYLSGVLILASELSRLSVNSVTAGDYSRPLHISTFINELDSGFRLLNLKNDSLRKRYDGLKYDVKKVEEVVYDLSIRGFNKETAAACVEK
T1 sequence (Q99598 whole entry, chain 2 of 2): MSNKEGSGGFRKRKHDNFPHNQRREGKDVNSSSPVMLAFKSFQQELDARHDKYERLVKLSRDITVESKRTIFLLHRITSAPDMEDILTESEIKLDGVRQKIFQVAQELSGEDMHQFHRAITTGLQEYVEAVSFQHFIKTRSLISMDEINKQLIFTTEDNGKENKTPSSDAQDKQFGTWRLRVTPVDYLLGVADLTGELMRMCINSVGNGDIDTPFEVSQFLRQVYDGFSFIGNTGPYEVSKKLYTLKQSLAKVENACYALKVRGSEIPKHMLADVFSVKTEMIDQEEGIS
Chain of translin (untagged, co-expressed);TRAXB2 (Q15631 whole entry, chain 1 of 2): as the sequence (Q15631 whole entry, chain 1 of 2) above
Chain of translin (untagged, co-expressed);TRAXB2 (Q99598 whole entry Q115L/H117N/R118A, chain 2 of 2): as the sequence (Q99598 whole entry, chain 2 of 2) above, with Q115L, H117N, R118A counted along it
Chain of translinB2 (untagged, co-expressed);TRAXB2 (Q15631 whole entry R86T/H88N/H90N, chain 1 of 2): as the sequence (Q15631 whole entry, chain 1 of 2) above, with R86T, H88N, H90N counted along it
Chain of translinB2 (untagged, co-expressed);TRAXB2 (Q99598 whole entry Q115L/H117N/R118A, chain 2 of 2): as the sequence (Q99598 whole entry, chain 2 of 2) above, with Q115L, H117N, R118A counted along it
Chain of translinB2 (untagged, co-expressed);TRAX (Q15631 whole entry R86T/H88N/H90N, chain 1 of 2): as the sequence (Q15631 whole entry, chain 1 of 2) above, with R86T, H88N, H90N counted along it
Chain of translinB2 (untagged, co-expressed);TRAX (Q99598 whole entry, chain 2 of 2): as the sequence (Q99598 whole entry, chain 2 of 2) above
Chain of translinB3 (untagged, co-expressed);TRAXB3 (Q15631 whole entry R192T/K193N/R194S/Y195N, chain 1 of 2): as the sequence (Q15631 whole entry, chain 1 of 2) above, with R192T, K193N, R194S, Y195N counted along it
Chain of translinB3 (untagged, co-expressed);TRAXB3 (Q99598 whole entry K241N/K242T/Y244N, chain 2 of 2): as the sequence (Q99598 whole entry, chain 2 of 2) above, with K241N, K242T, Y244N counted along it
Chain of translinB3 (untagged, co-expressed);TRAX (Q15631 whole entry R192T/K193N/R194S/Y195N, chain 1 of 2): as the sequence (Q15631 whole entry, chain 1 of 2) above, with R192T, K193N, R194S, Y195N counted along it
Chain of translinB3 (untagged, co-expressed);TRAX (Q99598 whole entry, chain 2 of 2): as the sequence (Q99598 whole entry, chain 2 of 2) above
Chain of translinB3 (untagged, co-expressed);TRAXB2 (Q15631 whole entry R192T/K193N/R194S/Y195N, chain 1 of 2): as the sequence (Q15631 whole entry, chain 1 of 2) above, with R192T, K193N, R194S, Y195N counted along it
Chain of translinB3 (untagged, co-expressed);TRAXB2 (Q99598 whole entry Q115L/H117N/R118A, chain 2 of 2): as the sequence (Q99598 whole entry, chain 2 of 2) above, with Q115L, H117N, R118A counted along it
Chain of translinB3 (Q15631 whole entry R192T/K193N/R194S/Y195N): as the sequence (Q15631 whole entry, chain 1 of 2) above, with R192T, K193N, R194S, Y195N counted along it

On to GCCCTCCTGCCCTCCTTCCGCGGG (ssDNA) [Bcl-CL1 24-mer], for which the binding result with translinB2 (untagged, …) is reported as “binds”; in [1], “binds”; in data set [2], “binds”; in data set [3] it was “binds”; with translinB3 (untagged, …) [4], “no binding”; with translinB3 (untagged, …) [5], “no binding”. Besides, the binding result is given as “no binding” in data set [6], “no binding” in the data set with translinB3 and “binds” in data set [7].

With CCTGTAGTAATGGCTGCATTGAACAGATGCATATCTTCCCCTG (ssDNA) [43-mer (trxB2 reverse primer)], the binding result in data set [8] is reported as “binds”.

(Values after PMC3299731 (PLoS ONE, 2012).)
